Results reported in the supplement of paper PMC10567573.

B1: USP39 (parent)
chain: TLSEAYIQIWKRRDNDETNQQGA

Variants of: B1
Assay: protein stability index of a GFP-peptide fusion (GPS, HEK-293T) (PSI 1-6); higher = more stable
Settings: c terminus: native
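Further: lentivirally expressed fusions sorted by FACS into six bins by GFP to DsRed ratio, PSI derived from sequencing read proportions per bin multiplied by bin number.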

Protein stability index: each site, then its substitutions
R13: V 1.97 | T 2.36 | P 2.46 | C 2.06 | M 2.14 | Q 4.3 | G 1.93 | N 2.37 | L 1.84 | H 2.43 | S 2.07 | K 2.05
Q8: H 2.24 | V 1.78 | E 3 | R 3.93 | F 2 | K 3.05 | L 1.42 | M 1.59 | S 2.48 | Y 2.07 | D 2.48 | P 1.9 | G 2.22 | A 2.92 | I 1.5 | T 1.98 | N 2.63
G22: V 3.41 | Q 4.13 | H 3.63 | I 3.35 | L 3.26 | C 2.83 | N 4.12 | R 2.83 | A 3.77 | T 3.66 | D 3.84 | K 4.09 | W 2.45 | F 3 | Y 3.04
E4: G 2.23 | D 2.56 | A 2.46 | C 1.73 | K 2.4 | H 2.28 | S 1.76 | M 2.09 | F 2.09 | N 2.05 | Y 2.04 | I 1.96 | R 2.97 | L 2.49 | P 3.17 | V 2.12 | T 2.74
W10: Y 2.53 | E 3.69 | M 2.5 | P 3.41 | L 2.96 | C 2.45 | H 2.9 | S 3.19 | R 3.49 | A 3.39 | K 3.23 | F 2.78 | N 2.85 | I 2.72 | Q 3.46
I9: R 3.3 | K 3.13 | N 3.46 | Q 3.23 | D 2.84 | M 2.5 | P 3.42 | H 2.68 | V 2.67 | S 2.8 | W 1.73 | E 3.11 | L 2.21 | G 2.54 | T 2.7 | A 2.66
K11: I 2.21 | C 3.3 | T 3.14 | M 2.63 | A 1.74 | D 1.58 | Q 1.78 | L 2.32 | R 1.86 | V 1.67 | Y 1.44 | P 1.72 | F 2.04
E17: C 2.33 | T 1.9 | N 1.77 | L 1.71 | K 1.72 | V 1.5 | R 1.63 | P 2.4 | D 2.79 | G 2.66 | W 2.35 | I 1.93 | A 1.8
S3: G 2.32 | K 2.68 | W 2.32 | L 3.01 | N 2.2 | A 3.23 | R 2.78 | V 1.11 | C 2.38 | Y 1.98 | H 2.5 | T 2.65 | I 2.3 | Q 2.38 | M 2.01 | D 3.55
A23: N 4.51 | L 3.89 | V 4.23 | T 3.73 | W 2.94 | R 2.59 | M 4.35 | F 3.71 | S 3.94 | K 4.54 | E 4.22 | C 3.53 | Y 3.58
D16: T 1.98 | P 1.29 | C 2.54 | H 1.63 | Y 2.9 | M 2.93 | Q 2.22 | N 2.67 | R 1.66 | K 2.32 | S 2.22 | L 2.61 | I 1.95 | F 1.51
N19: A 2.38 | H 2.75 | G 3.69 | R 2.37 | L 1.79 | C 2.1 | T 3.51 | V 2.32 | Y 3.5 | S 2.9
Q20: G 2.68 | R 2.35 | W 2.17 | H 1.58 | A 2.51 | P 1 | Y 2.4 | S 4.26 | T 3.77 | K 2.14 | L 2.02 | M 3.46 | N 3.41 | F 2.02 | V 1.73 | D 2.37
A5: E 2.75 | V 2.93 | M 2.19 | S 2.31 | G 2.86 | K 2.2 | T 2.38 | P 3.69 | C 3.14 | I 2.02 | Y 2.57 | F 1.78 | L 2.29 | N 2.6 | D 3.45 | R 3.47
D14: N 1.71 | L 1.94 | F 2 | G 2.06 | H 2.19 | Y 1.9 | W 1.94 | S 1.94 | I 2.6 | M 2.01 | A 2.1 | K 2.67 | E 2.07 | P 2.37 | V 2.9 | Q 2.12
T18: L 2.06 | W 2.11 | M 1.43 | N 2.41 | C 1.69 | S 1.89 | K 3.63 | V 2.56 | P 1.87 | H 3.19 | F 1.73 | G 2.57 | E 2.56 | D 1.95
I7: R 2.68 | E 3.69 | Q 3.2 | D 3.29 | S 3.32 | W 3.49 | V 2.72 | A 2.93 | K 3.71 | H 3.07 | G 2.56
N15: C 2.31 | D 3.03 | M 1.86 | W 2.36 | Q 2.01 | T 1.88 | R 2.24 | G 2.68 | K 2.51 | V 2.12 | F 2.24 | H 3.1 | Y 1.28 | S 1.88
T1: C 2.34 | R 2.79 | M 2.66 | S 2.54 | G 3.34 | E 2.59 | K 2.36 | Y 1.78 | I 2.31 | F 2.16 | D 2.35 | A 2.37 | V 2.07 | Q 2.32
Y6: K 3.02 | M 2.26 | N 1.9 | I 2.88 | H 3.07 | C 2.98 | P 2.61 | E 2.32 | T 3.32 | A 3.45 | V 3.28 | Q 3.57 | G 3.19 | D 3.66
L2: T 2.72 | N 3.33 | E 3.08 | P 2.6 | A 2.8 | Q 3.35 | W 2.63 | M 2.98 | V 2.73 | C 2.32 | Y 2.12 | I 2.77 | K 2.74 | R 2.85 | S 3.08 | D 3.46 | G 3.77 | F 2.51
R12: A 2.15 | Y 1.81 | G 3.15 | F 2.61 | C 2 | L 1.98 | D 3.2 | P 2.07 | M 2.1 | S 2.53 | V 1.86 | Q 2.87 | W 1.18 | E 2.65 | H 1.96 | N 3.13
Q21: H 2.05 | W 1.84 | M 1.8 | I 2.66 | L 2.09 | C 1.76 | F 1.79 | N 3.81 | S 2.96 | R 1.53 | P 4.25 | E 2.87 | Y 2.43 | K 3.59
